{"source": "paper PMC6957486", "key": {"[1]": {"target": "photosystem I (PSI) core from H. hongdechloris grown under white light, one monomer of the trimer (Halomicronema hongdechloris)", "assay": "cryo-EM structure; single particle analysis of PSI trimers purified whole from thylakoid membranes; 50 mM MES (pH 6.0), 5 mM CaCl2, 0.2-2.0% sucrose, 0.01% β-DDM; grids washed without sucrose and β-DDM; 2.35 Å (white PSI) and 2.41 Å (far-red PSI)"}, "[2]": {"target": "photosystem I (PSI) core from H. hongdechloris grown under far-red light, one monomer of the trimer (Halomicronema hongdechloris)", "assay": "cryo-EM structure; single particle analysis of PSI trimers purified whole from thylakoid membranes; 50 mM MES (pH 6.0), 5 mM CaCl2, 0.2-2.0% sucrose, 0.01% β-DDM; grids washed without sucrose and β-DDM; 2.35 Å (white PSI) and 2.41 Å (far-red PSI)"}}}
{"substance": "photosystem I (PSI) core from H. hongdechloris grown under white light, one monomer of the trimer (from UniProt A0A1Z3HPE3 1-81; A0A1Z3HHI7 1-142; A0A1Z3HI16 1-68) (complex)", "values": [{"measurement": "stoichiometry N", "setting": "[1]", "result": 3}]}
{"substance": "photosystem I (PSI) core from H. hongdechloris grown under far-red light, one monomer of the trimer (from UniProt A0A1Z3HPE3 1-81; A0A1Z3HHI7 1-142; A0A1Z3HI16 1-68; A0A1Z3HR36 1-96) (complex)", "values": [{"measurement": "stoichiometry N", "setting": "[2]", "result": 3}]}
